Test results as given in paper PMC5792450, “PRRT2 Regulates Synaptic Fusion by Directly Modulating SNARE Complex Assembly” (Cell Reports, 2018).

Target: T1, t-SNARE (syntaxin1a/SNAP25) (UniProt P32851 1-288; P60879 1-206)
T1 construct: syntaxin1a; SNAP25; also called t-SNARE complexes; synaptic t-SNAREs
Assay: MST; t-SNARE or assembled SNARE complex titrated in solution, up to ∼150 μM t-SNARE and ∼60 μM SNARE complex; binding not saturated; soluble conditions; Syt1 tested likewise
Conditions: both partners purified

T1 sequence (P32851 whole entry, chain 1 of 2): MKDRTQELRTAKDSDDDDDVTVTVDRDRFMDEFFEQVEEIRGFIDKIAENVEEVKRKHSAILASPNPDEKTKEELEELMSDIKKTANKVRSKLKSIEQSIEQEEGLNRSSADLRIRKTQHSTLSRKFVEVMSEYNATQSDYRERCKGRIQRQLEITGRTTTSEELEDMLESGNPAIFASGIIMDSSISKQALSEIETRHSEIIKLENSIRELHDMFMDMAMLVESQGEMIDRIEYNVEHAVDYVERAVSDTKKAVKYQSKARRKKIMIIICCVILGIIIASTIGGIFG
T1 sequence (P60879 whole entry, chain 2 of 2): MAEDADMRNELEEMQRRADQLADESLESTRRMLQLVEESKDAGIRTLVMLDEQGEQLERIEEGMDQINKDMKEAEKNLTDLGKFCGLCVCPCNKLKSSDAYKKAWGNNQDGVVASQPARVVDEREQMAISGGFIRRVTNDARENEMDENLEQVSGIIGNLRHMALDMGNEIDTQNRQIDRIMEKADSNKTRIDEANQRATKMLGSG

Kd: ≥ 50 µM
B1: proline-rich transmembrane protein 2 (PRRT2), full-length, wild type (natural protein, human, UniProt Q7Z6L0 1-340, looked up)
chain: MAASSSEISEMKGVEESPKVPGEGPGHSEAETGPPQVLAGVPDQPEAPQPGPNTTAAPVDSGPKAGLAPETTETPAGASETAQATDLSLSPGGESKANCSPEDPCQETVSKPEVSKEATADQGSRLESAAPPEPAPEPAPQPDPRPDSQPTPKPALQPELPTQEDPTPEILSESVGEKQENGAVVPLQAGDGEEGPAPEPHSPPSKKSPPANGAPPRVLQQLVEEDRMRRAHSGHPGSPRGSLSRHPSSQLAGPGVEGGEGTQKPRDYIILAILSCFCPMWPVNIVAFAYAVMSRNSLQQGDVDGAQRLGRVAKLLSIVALVGGVLIIIASCVINLGVYK
notes: PRRT2, human, full length, cloned into pGEX6p-1; In the fusion, docking and FRET assays it was reconstituted into liposomes; also called purified PRRT2; recombinant PRRT2; source: E. coli Rosetta2(DE3), purified (glutathione agarose, cleaved off the resin with PreScission Protease)
